This note sets out measurements from the supplement of paper PMC12042874.

± gives the uncertainty stated by the source.

The nature of the data set: amyloid nucleation score (Sup35N fusion, yeast selection) (log enrichment); library NNK1; higher = more nucleation; inactive = no reads after selection. An outline of the steps: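 Psi-negative yeast expressed Sup35N fused to peptides of 20 random codons. They were induced 24 hours with 100 μM copper sulfate, grown 7 days at 30°C without adenine and uracil, and their plasmid inserts from input and output were Illumina-sequenced. The nucleation score is the DiMSum log enrichment of output over input reads, centred on the mode score of non-aggregating sequences. Sequences with under 100 input reads were excluded.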
With FSYCEWRDKCCERWSFLDNQ, the amyloid nucleation score amounted to 1.11 ± 0.49.

The substance MWYLMRTLTLIRFFVSPVGS returned an amyloid nucleation score of 0.154 ± 0.31.

Take EWVGQFEYEGTTLWVYLVTL: the amyloid nucleation score was -0.419 ± 0.27. Under DLNDMAIRV stands 0.004 ± 0.31.

The substance YIFENLARAPMLQ registered an amyloid nucleation score of 0.259 ± 0.74. To LDINDTMYETNCFG belongs -0.488 ± 0.58; to KYIRISVDGIRFKEWCEFGS, 0.777 ± 0.14; to SLCGTS, -0.222 ± 0.46.

On to LPGFYDRKICKSLSMIYRLS, for which the amyloid nucleation score was -0.405 ± 1.7. To SRWTFSNRAFYRTGAWA belongs 0.235 ± 0.68; to SPHAIGRYLSFCRFCGTAAR, -0.026 ± 0.35. SIYCGDTQDVVPIVSHLSNL returned an amyloid nucleation score of 0.187 ± 0.29.

SLSMSRIQMHNRYKPGTQFD: the amyloid nucleation score was 1.07 ± 0.46. In turn, YLRVNAHMLDYSF had an amyloid nucleation score of -0.513 ± 1. Under VDKKRAISCKSFRLYGRFSL stands -0.647 ± 0.32; under QSGAVTSSVRPQRVEVVRVV, -0.904 ± 0.88. Under LVFANSHGFCGKSSLLRVGD stands “inactive”. Consider MDLKTY, for which the amyloid nucleation score was -0.696 ± 0.46. On to GRLSGYEWGRKSRSPGRWTV, for which the amyloid nucleation score is 0.438 ± 1.1.

As for SRAWWVKEFRGVKEVIQVRF, the amyloid nucleation score turned out to be 0.488 ± 0.56.

Substance LAVEWWTNVVYVFYAYFANR returned an amyloid nucleation score of 0.001 ± 0.25. Under GGCVGLCFRYSFPTCDSC stands 1.65 ± 0.42; under VCKMSTLVDDWRGSARPHRL, 0.782 ± 0.37. LNINSKYLNLICYHIRHLAV registered an amyloid nucleation score of -0.593 ± 0.78. As to FGMSRW, the amyloid nucleation score worked out at 0.166 ± 0.78. In turn, FADLK had an amyloid nucleation score of -0.88 ± 1.7. To STLLMTSDSSALMLLYTSIL belongs -0.336 ± 0.46; to VDGMGYDLIMCLYYNGLWAN, 0.515 ± 0.54; to MTSYGSFRKATWNDWISNMS, -0.393 ± 0.41. HLSSTVITLVPCRLEMYLEG: the amyloid nucleation score came to 0.55 ± 0.25.

The substance QSADLMNSMTLICGWSVQIA yielded an amyloid nucleation score of 4.43 ± 0.12.

Substance NESDI had an amyloid nucleation score of 0.392 ± 0.26. Under SMWVWMHICEAMG stands 4.6 ± 0.11; under VSVTVLGRWR, 3.55 ± 0.19; under LLMYKKCRQWGCGNVSCSFD, 7.086 ± 0.065. Under QECMKLNLAFYWSDCVVRSF stands 1.76 ± 0.49; under KSAEIKEQCTTWFMYTMLGA, -0.785 ± 0.44. To SYAGYGTNK belongs -0.242 ± 0.62; to KLLIP, -1.17 ± 0.58. Substance SRVFRLVFKPSYGSLTRRCR gave an amyloid nucleation score of -0.904 ± 1.9. To YYLDGTGLWVNCVRMARGCG belongs 1.16 ± 0.78; to ILKALF, 1.53 ± 0.8; to WNEADWHMCH, 1.34 ± 0.38. Under DKRYGDEVRHTGRWSRSVVW stands 0.013 ± 0.42. Under WDRASYIEYRSFIEWRRLPK stands -0.006 ± 0.55.

On to LCKDLAKHHN, for which the amyloid nucleation score came out at 4.97 ± 0.056.

With LLVLSLINFFFKKRAFCPIT, the amyloid nucleation score worked out at 2.11 ± 0.6. Substance LGVQFSGRLSVPVYFMWFTL showed an amyloid nucleation score of 0.814 ± 0.61. For the substance NLGVKDLNTI, the amyloid nucleation score is -0.905 ± 0.4. To EWVVWVDCRGRYADNVSGGA belongs -0.558 ± 0.53; to TFYEMPFIFDLCYRWLTVTG, 1.34 ± 0.65; to FYFSASATIL, -0.093 ± 0.81. As for VRLSFPKRLSISSAVCNRGS, the amyloid nucleation score came out at 0.279 ± 0.62. Under RSVGFEGMSNGWCATES stands 0.634 ± 0.77; under EVDRWGICCPYW, 1.88 ± 0.26.

As to KGDMWMGPNESWVKVNLYRV, the amyloid nucleation score was determined as 0.039 ± 0.55. Under SSESICFNIRGQDINRT stands -0.446 ± 0.37. Under ASRYGDF stands 0.555 ± 0.42; under HCRKYTKTSR, -0.327 ± 0.47; under SIGPFKTYCTAAWP, -0.502 ± 0.36.

ERPAAYATVTTSCKKTWDL: the amyloid nucleation score was 7.769 ± 0.06. Under QDRPYVFY stands -0.331 ± 0.44; under GGWSGRSLRDCVCMVHIKVG, 0.071 ± 0.75. To TRHCMRLWECKHEMRTAN belongs -0.647 ± 1.1; to CFINSDVMVLLVTTYHYS, 7.321 ± 0.071. Consider RQSRVQGMYHY, for which the amyloid nucleation score stood at 1.28 ± 0.48. For DSLLWVMKYSMVSFYMCDYR, the amyloid nucleation score was -0.668 ± 0.97. Under AKIWVWSWWY stands 0.039 ± 0.47; under GWIVAMRKR, 0.236 ± 1.6.

For the substance NVTNQCMLW, the amyloid nucleation score was found to be 0.509 ± 0.33.

Substance LKRFMDTDYYFMMKCCTSN displayed an amyloid nucleation score of 0.843 ± 0.55. Under MFSTLH stands 0.178 ± 0.36; under LRRGMQHAFADSENFVGSHV, -0.168 ± 1.3; under FRVYFIVRVPYI, 1.36 ± 0.52.

Take YKLFGFFGRHPVNWYV: the amyloid nucleation score came out at 0.344 ± 0.51. In the case of VHCHMEITSWLGRRS, the amyloid nucleation score came out at 2.8 ± 0.12. Under YGSDGCKRRKGSTALAIVTY stands 0.423 ± 0.41; under KLWFVGSLYSGNVQVYVVVP, 4.49 ± 0.061; under SRLVRSSLHMGAKTRVIQL, 0.881 ± 0.26. INFCFKCWNKVWLDNFFLSS came in with an amyloid nucleation score of -0.67 ± 0.22.

LAPMDLCGGSVAFR: the amyloid nucleation score was 0.47 ± 0.4. To KCTENLFRHCIRLEGSTWKF belongs -1.34 ± 2.7.

For AVFLVRAPSTRGLARMVDLA, the amyloid nucleation score result was “inactive”.

On to HLLRRHYNCLSHLGWCNGLF, for which the amyloid nucleation score was -0.024 ± 0.29.

In the case of SQIADHIRSPRNL, the amyloid nucleation score was -1.37 ± 2.1.

Take MMFSRILCNGDPQGSARWLS: the amyloid nucleation score result is “inactive”. The substance RSVMVMLPS yielded an amyloid nucleation score of 0.022 ± 0.37. Under EMFCC stands 0.554 ± 0.59; under HRIWRLLALNT, -0.583 ± 0.54.

The substance VYLWGPKVYRSDWMGRHFK displayed an amyloid nucleation score of 0.855 ± 0.72. AYFMGHCLKGPRVTLVGCKT displayed an amyloid nucleation score of 0.525 ± 0.65. To GVLVKNQGLLVNAIHSMQTN belongs -0.797 ± 2.4.

LVSMSYSVREDDFISLLWGV: the amyloid nucleation score entry was “inactive”. Under IIFCMVFDSVSDDVLYITSK stands -0.941 ± 0.99. Under PWRAGYGRRKLLSEGDFRLS stands 0.218 ± 0.62; under YRVVACMGCALRLVWLARYR, -0.31 ± 0.3. Substance TGLELGVPKIRCMSFHVLPW showed an amyloid nucleation score of -0.394 ± 0.92. Under PIFLGLFDDRYMG stands 0.116 ± 0.45; under ANADDMLRFRGDF, 0.243 ± 0.44.

Regarding TEGRKSSNVQ, the amyloid nucleation score stood at 0.577 ± 0.47. Under GGLICTGNFY stands “inactive”; under VHDVWEGFICGLPKYRGRLM, 0.026 ± 0.75; under TRHFLSIVLLEL, 1.78 ± 0.28. To NYNTIWMMKWFNGRWFLSAV belongs -0.293 ± 0.94.

As to YIGRGNMHELFHRLLRGCVL, the amyloid nucleation score result is “inactive”.
